The values below come from PMC6197697, “Rice transcription factor OsMADS25 modulates root growth and confers salinity tolerance via the ABA–mediated regulatory pathway and ROS scavenging”.

Data set [1] deals with T1, His-OsMADS25 (Oryza sativa, UniProt Q84NC5 1-227). Put plainly: EMSA; 5 mM Mg2+; 10 mM Tris pH 7.5, 50 mM KCl, 1 mM DTT, 2.5% glycerol, 5 mM MgCl2, 0.05% NP-40, 50 ng/ul poly(dI-dC), 30 ng protein, 400 fmol probe in 20 ul, 25 C 20 min (final values calculated from stocks). The settings on record: protein: recombinant; tags: His (pET32a fusion); chain copies: 2; label: biotin 3' end; blunt.
T1 sequence (Q84NC5 whole entry, the tested form may be a part): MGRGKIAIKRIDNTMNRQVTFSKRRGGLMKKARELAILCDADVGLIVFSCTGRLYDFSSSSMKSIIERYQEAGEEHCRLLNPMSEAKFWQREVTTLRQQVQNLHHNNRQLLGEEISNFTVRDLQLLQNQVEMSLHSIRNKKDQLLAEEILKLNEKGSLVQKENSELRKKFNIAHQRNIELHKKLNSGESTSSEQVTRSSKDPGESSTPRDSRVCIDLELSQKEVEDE

The target of data set [2] is T1, His-OsMADS25. Put plainly: EMSA; 5 mM Mg2+; competition stated to confirm specificity; 10 mM Tris pH 7.5, 50 mM KCl, 1 mM DTT, 2.5% glycerol, 5 mM MgCl2, 0.05% NP-40, 50 ng/ul poly(dI-dC), 30 ng protein, 400 fmol probe in 20 ul, 25 C 20 min (final values calculated from stocks). The settings on record: protein: recombinant; tags: His (pET32a fusion); chain copies: 2; label: biotin 3' end; blunt.

B1: OsP5CR P1 probe (dsDNA)
DNA 1: CAGAGGGCATTCTCCCTAATAAGGCAGATACCTCCG
DNA 2: CGGAGGTATCTGCCTTATTAGGGAGAATGCCCTCTG
Turning to B1, in data set [1], the binding result was “no binding”.

B2: OsP5CR P2 probe (dsDNA)
DNA 1: CGACGAATCCATTCATATATTTGTAGGGGCAGCGG
DNA 2: CCGCTGCCCCTACAAATATATGAATGGATTCGTCG
Turning to B2, in data set [2], the binding result is “binds”.
